Measured values reported in the supplement of paper PMC9112550, “Optimization of the antimicrobial peptide Bac7 by deep mutational scanning” (BMC Biology, 2022).

System: Escherichia coli TOP10
Assay: shrunken log2 fold change of peptide-encoding DNA abundance (4.5 h post-induction vs induction); higher = less antimicrobial activity (less host growth inhibition)
Conditions: time post-induction: 4.5 h; library: site-saturation at positions 5, 18, 19, 20
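Further: peptides expressed intracellularly from a pBAD plasmid library in pooled LB shake-flask culture, induced with 0.3% L-arabinose, DNA abundance read by NGS, three biological replicates, DESeq2 with apeglm shrinkage.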

Sequence | shrunken log2 fold change
RRIRDRPPRLPRPRPRPIRKPRP | 0.0201
RRIRDRPPRLPRPRPRPIRMPRP | -0.0588
RRIRDRPPRLPRPRPRPISEPRP | -0.0429
RRIRDRPPRLPRPRPRPISRPRP | -0.032
RRIRDRPPRLPRPRPRPISSPRP | 0.00884
RRIRDRPPRLPRPRPRPKAAPRP | 0.0214
RRIRDRPPRLPRPRPRPKAHPRP | 0.0408
RRIRDRPPRLPRPRPRPKDNPRP | -0.116
RRIRDRPPRLPRPRPRPKFEPRP | -0.0187
RRIRDRPPRLPRPRPRPKFHPRP | -0.362
RRIRDRPPRLPRPRPRPKFPPRP | -0.237
RRIRDRPPRLPRPRPRPKGNPRP | 0.0802
RRIRDRPPRLPRPRPRPKGWPRP | 0.589
RRIRDRPPRLPRPRPRPKHIPRP | -0.236
RRIRDRPPRLPRPRPRPKHMPRP | -0.192
RRIRDRPPRLPRPRPRPKIMPRP | 0.199
RRIRDRPPRLPRPRPRPKITPRP | -0.375
RRIRDRPPRLPRPRPRPKIYPRP | -0.684
RRIRDRPPRLPRPRPRPKLHPRP | 0.464
RRIRDRPPRLPRPRPRPKLRPRP | -0.0184
RRIRDRPPRLPRPRPRPKMLPRP | 0.11
RRIRDRPPRLPRPRPRPKMRPRP | -0.013
RRIRDRPPRLPRPRPRPKNHPRP | -0.195
RRIRDRPPRLPRPRPRPKNMPRP | -0.482
RRIRDRPPRLPRPRPRPKNPPRP | -0.128
RRIRDRPPRLPRPRPRPKRHPRP | 0.214
RRIRDRPPRLPRPRPRPKRKPRP | 0.0894

Sequence | shrunken log2 fold change
RRIRDRPPRLPRPRPRPKRLPRP | -0.0451
RRIRDRPPRLPRPRPRPKRQPRP | -0.0603
RRIRDRPPRLPRPRPRPKWCPRP | 0.135
RRIRDRPPRLPRPRPRPKWGPRP | 0.105
RRIRDRPPRLPRPRPRPKWKPRP | -0.00871
RRIRDRPPRLPRPRPRPKYNPRP | -0.813
RRIRDRPPRLPRPRPRPKYPPRP | 0.0118
RRIRDRPPRLPRPRPRPKYTPRP | -0.214
RRIRDRPPRLPRPRPRPLADPRP | 0.0597
RRIRDRPPRLPRPRPRPLAFPRP | 0.334
RRIRDRPPRLPRPRPRPLASPRP | 0.171
RRIRDRPPRLPRPRPRPLCWPRP | 0.824
RRIRDRPPRLPRPRPRPLECPRP | 0.0215
RRIRDRPPRLPRPRPRPLEEPRP | 0.0347
RRIRDRPPRLPRPRPRPLFIPRP | -0.184
RRIRDRPPRLPRPRPRPLFKPRP | -0.221
RRIRDRPPRLPRPRPRPLHPPRP | 0.286
RRIRDRPPRLPRPRPRPLICPRP | 0.347
RRIRDRPPRLPRPRPRPLKAPRP | -0.214
RRIRDRPPRLPRPRPRPLKCPRP | 0.055
RRIRDRPPRLPRPRPRPLLCPRP | 0.503
RRIRDRPPRLPRPRPRPLLFPRP | 0.445
RRIRDRPPRLPRPRPRPLMWPRP | 2.47
RRIRDRPPRLPRPRPRPLNCPRP | -0.0225
RRIRDRPPRLPRPRPRPLNKPRP | -0.295
RRIRDRPPRLPRPRPRPLNTPRP | -0.0995
RRIRDRPPRLPRPRPRPLPHPRP | -0.146
